For 1 molecule, Kd results are on record in paper PMC3115558 (Biochemistry, 2011).

Ends that are not written are not given here.

For this test, the target named is PP1α catalytic subunit (New England BioLabs) (UniProt P62139 1-330). Nature of the test: SPR. (Surface plasmon resonance follows binding to a sensor surface in real time, without labels.)
PP1α catalytic subunit (New England BioLabs), sequence (P62139 whole entry): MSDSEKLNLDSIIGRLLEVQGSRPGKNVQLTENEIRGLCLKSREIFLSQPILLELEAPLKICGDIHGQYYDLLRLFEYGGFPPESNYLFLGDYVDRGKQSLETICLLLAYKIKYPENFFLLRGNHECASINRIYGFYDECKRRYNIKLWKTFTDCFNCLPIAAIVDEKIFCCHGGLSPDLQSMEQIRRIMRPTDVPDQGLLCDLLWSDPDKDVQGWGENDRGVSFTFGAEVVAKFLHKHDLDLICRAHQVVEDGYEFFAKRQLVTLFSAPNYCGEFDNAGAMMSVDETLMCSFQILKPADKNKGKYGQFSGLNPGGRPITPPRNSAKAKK

B1: Biotinylated AKAP79 synthetic peptide, amino acids 25-49, mutant (AxxAxA) (peptide)
chain: AERQKEKASMLCAKRAKAAAKALKP
modifications: also: biotinylated, position not given here
B1: binding was characterised by a dissociation constant (Kd) of 341 nM.

A word on the Kd: it is the equilibrium constant for the complex coming apart.
